Legend:
[1] = target: YFP-D/NP_TAIL, yellow fluorescent protein fused to the nucleoprotein tail of D/bovine/France/2986/20 (influenza D virus D/bovine/France/2986/2012); assay: SPR
[2] = target: importin-α7 (Homo sapiens) (UniProt O60684); details: cited from earlier work
[3] = target: T1, human importin-α7 without its importin-β binding (IBB) domain (residues 58 to 536) (human, UniProt O60684 58-536); assay: SPR; details: both partners purified
T1 construct: also called ΔIBB importin-α7; Imp-α7
T1 sequence (O60684 58-536): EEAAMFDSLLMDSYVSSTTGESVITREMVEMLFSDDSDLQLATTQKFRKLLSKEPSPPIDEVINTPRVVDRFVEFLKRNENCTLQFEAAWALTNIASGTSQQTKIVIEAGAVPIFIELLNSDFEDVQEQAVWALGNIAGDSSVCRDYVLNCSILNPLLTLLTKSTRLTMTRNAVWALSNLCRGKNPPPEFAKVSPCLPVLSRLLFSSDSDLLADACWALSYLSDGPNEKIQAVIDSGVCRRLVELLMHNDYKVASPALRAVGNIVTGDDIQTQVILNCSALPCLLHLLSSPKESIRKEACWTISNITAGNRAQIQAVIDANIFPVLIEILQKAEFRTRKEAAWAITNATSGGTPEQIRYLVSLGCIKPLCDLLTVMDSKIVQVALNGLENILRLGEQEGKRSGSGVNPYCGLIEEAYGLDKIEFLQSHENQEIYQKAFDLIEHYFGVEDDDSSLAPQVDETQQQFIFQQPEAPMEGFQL

[4] = target: T2, human importin-α3 without its importin-β binding (IBB) domain (residues 64 to 521) (human, UniProt O00629 64-521); assay: SPR; details: both partners purified
T2 construct: also called ΔIBB importin-α3; Imp-α3
T2 sequence (looked up): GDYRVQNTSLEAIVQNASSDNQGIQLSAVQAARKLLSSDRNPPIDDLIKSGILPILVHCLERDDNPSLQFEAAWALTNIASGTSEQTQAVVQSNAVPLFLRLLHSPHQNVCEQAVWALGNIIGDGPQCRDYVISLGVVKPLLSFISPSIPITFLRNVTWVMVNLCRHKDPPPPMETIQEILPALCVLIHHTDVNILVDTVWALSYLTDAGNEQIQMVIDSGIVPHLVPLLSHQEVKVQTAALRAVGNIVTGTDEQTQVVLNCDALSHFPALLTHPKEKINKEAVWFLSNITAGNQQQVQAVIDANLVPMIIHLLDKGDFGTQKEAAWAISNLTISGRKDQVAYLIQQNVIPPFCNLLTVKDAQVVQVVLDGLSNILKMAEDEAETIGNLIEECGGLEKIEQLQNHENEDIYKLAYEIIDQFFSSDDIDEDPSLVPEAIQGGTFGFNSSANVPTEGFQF

[5] = target: T3, human importin-α5 without its importin-β binding (IBB) domain (residues 66 to 538) (human, UniProt P52294 66-538); assay: SPR; details: both partners purified
T3 construct: also called ΔIBB importin-α5; Imp-α5
T3 sequence (P52294 66-538): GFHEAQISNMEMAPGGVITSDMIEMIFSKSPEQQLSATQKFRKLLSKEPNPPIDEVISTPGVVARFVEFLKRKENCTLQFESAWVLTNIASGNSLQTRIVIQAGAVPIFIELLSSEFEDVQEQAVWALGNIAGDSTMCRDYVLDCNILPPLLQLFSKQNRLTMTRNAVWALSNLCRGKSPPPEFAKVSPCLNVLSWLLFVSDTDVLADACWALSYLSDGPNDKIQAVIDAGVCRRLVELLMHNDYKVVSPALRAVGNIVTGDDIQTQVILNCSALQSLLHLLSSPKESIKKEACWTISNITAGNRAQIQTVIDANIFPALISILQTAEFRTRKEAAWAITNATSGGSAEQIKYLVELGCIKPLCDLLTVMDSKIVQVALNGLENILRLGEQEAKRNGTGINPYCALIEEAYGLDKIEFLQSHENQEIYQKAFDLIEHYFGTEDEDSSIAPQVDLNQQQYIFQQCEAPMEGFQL

[6] = target: T1, human importin-α7 without its …; assay: SPR; details: both partners purified; remark: listed apart in the source
[7] = target: T2, human importin-α3 without its …; assay: SPR; details: both partners purified; remark: listed apart in the source
[8] = target: T3, human importin-α5 without its …; assay: SPR; details: both partners purified; remark: listed apart in the source

human importin-α3 without its importin-β binding (IBB) domain (residues 64 to 521) (from UniProt O00629 64-521) (domain or fragment)
Kd [1]: 22 nM | koff [1]: 0.007 s⁻¹ | kon [1]: 2.8e+06 M⁻¹ s⁻¹

human importin-α5 without its importin-β binding (IBB) domain (residues 66 to 538) (from UniProt P52294 66-538) (domain or fragment)
Kd [1]: 21 nM | koff [1]: 0.5 s⁻¹ | kon [1]: 1.1e+06 M⁻¹ s⁻¹

human importin-α7 without its importin-β binding (IBB) domain (residues 58 to 536) (from UniProt O60684 58-536) (domain or fragment)
Kd [1]: 29 nM | koff [1]: 0.104 s⁻¹ | kon [1]: 5e+06 M⁻¹ s⁻¹

influenza B nucleoprotein NPTAIL (30-71) (from UniProt P13885)
Kd [2]: 844 nM

B1: B/NP_TAIL-YFP, nucleoprotein tail of B/Memphis/13/03 (residues 1 to 71) fused to yellow fluorescent (domain or fragment)
chain: MSNMDIDGINTGTIDKTPEEITSGTSGTTRPIIRPATLAPPSNKRTRNPSPERATTSSEADVGRKTQKKQT
koff [3]: > 1 s⁻¹ | kon [3]: > 1e+07 M⁻¹ s⁻¹ | koff [4]: > 1 s⁻¹ | kon [4]: > 1e+07 M⁻¹ s⁻¹ | koff [5]: > 1 s⁻¹ | kon [5]: > 1e+07 M⁻¹ s⁻¹ | Kd [6]: 405 ± 5 nM | Kd [7]: 308 ± 106 nM | Kd [8]: 770 ± 24 nM
